Residue numbers refer to the chain shown, from its start.

In this experiment the target is LTBR (form used for the KD values not stated) (human, UniProt P36941 31-227, limits assumed). The experiment in a line: method and format not stated.
Chain of LTBR (form used for the KD values not stated) (P36941 31-227 limits assumed): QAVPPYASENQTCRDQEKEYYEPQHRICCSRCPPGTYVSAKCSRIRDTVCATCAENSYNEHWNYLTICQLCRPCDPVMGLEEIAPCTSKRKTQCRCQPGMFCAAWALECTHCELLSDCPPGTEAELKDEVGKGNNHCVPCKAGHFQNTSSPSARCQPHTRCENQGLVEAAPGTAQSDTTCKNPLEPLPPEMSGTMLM

B1: SEQ ID NO 53: stapled scFv (VL3 Y36F_S49Y_F87Y) BHA10 (VH-VL), lower affinity variant (scFv)
scFv: QVQLVQSGAEVKKPGSSVKVSCKASGYTFTTYYLHWVRQAPGCGLEWMGWIYPGNVHAQYNEKFKGRVTITADKSTSTAYMELSSLRSEDTAVYYCARSWEGFPYWGQGTTVTVSSGGGSGGGSGCPPCGGGGDIQMTQSPSSLSASVGDRVTITCKASQNVGINVAWFQQKPGKAPKSLIYSASYRYSGVPSRFSGSGSGTDFTLTISSLQPEDFATYYCQQYDTYPFTFGCGTKVEIK
notes: scFv used in COVA14107
As to B1, the Kd is ~60 nM.

B2: SEQ ID NO 54: stapled scFv (VH_CDR1_Y33A) BHA10 (VH-VL), lower affinity variant (scFv)
scFv: B1 scFv with Y33A, F169Y, Y182S, Y220F
notes: scFv used in COVA14108
Turning to B2, the Kd was ~600 nM.
